Source: paper doi:10.1101/2021.02.17.431492 (bioRxiv, 2021)

Biological target: monomeric SARS-CoV-2 receptor binding domain (RBD) (SARS-CoV-2, UniProt P0DTC2)
Experiment: ELISA

B1: DH1041 (ACE2 binding site-targeting RBD neutralizing antibody) (antibody, V domains shown)
VH: EVQLVESGGGLVQPGGSLRLSCAASGVTFSSYWMSWVRQAPGKGLEWVANIRQDGSEKYSVDSVKGRFTISRDNAKNSLYLQMNSLRAEDTAVYYCARARRADNSGYYGFHFDCWGQGTLVTVSS
VL: QSVLTQPPSVSGAPGQRVTISCTGSSSNIGAGYDVHWYQQLPGTAPKLLIYGNNNRPSGVPDRFSDSKSGTSASLAITRLQAEDEADYYCQSYDSSLSGWVFGGGTKLTVL
B1: binds.
